Measurements from patent US20190202900A1 (INFLARX, published 2019).

Target: T1, human endogenous C5a (eC5a) generated in human zymosan-activated plasma (human, UniProt P01031 678-751)
T1 sequence: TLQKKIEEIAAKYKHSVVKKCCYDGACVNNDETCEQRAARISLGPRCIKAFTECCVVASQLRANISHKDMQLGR
Test: cell-based or functional assay

B1: IFX-1 (antibody, IgG4, V domains shown)
VH: QVQLQQSGPQLVRPGTSVKISCKASGYSFTTFWMDWVKQRPGQGLEWIGRIDPSDSESRLDQRFKDRATLTVDKSSSTVYMQLSSPTSEDSAVYYCARGNDGYYGFAYWGQGTLVTVSS
VL: DIVLTQSPASLAVSLGQRATISCKASQSVDYDGDSYMKWYQQKPGQPPKLLIYAASNLQSGIPARFSGSGSGTDFTLNIHPVEEEDAATYYCQQSNEDPYTFGGGTKLEIK
B1 was tested, and the “blocking of eC5a-induced CD11b up-regulation on human granulocytes (ZAP-CD11b assay), Ab:Ag ratios 1:1 and 2:1” value was no more than 98% and the “decrease of CD11b expression on human granulocytes (ZAP-CD11b assay, flow cytometry MFI), Ab:Ag molar ratio 0.5:1” value was greater than 80%.
